Assay: yeast display, Sf9 membrane polyspecificity reagent, FACS + sequencing; frameworks hold sequencing errors
Summary of the method: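 Nanobodies from a synthetic yeast display library (Saccharomyces cerevisiae BJ5465), induced 36–48 hours with galactose, were stained 1 hour at 4 °C with 10% biotinylated, detergent-solubilized Sf9 membrane reagent, enriched on streptavidin microbeads, then FACS-sorted. Anti-HA (expression) and streptavidin (reagent binding) fluorescence set low and high (top ~1%) gates. Polyreactivity labels come from the gate of origin. Genes were colony-PCR amplified, MiSeq 2 × 250 sequenced and filtered by CDR length.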

Row | Sequence | polyreactivity (PSR sort gate)
1 | QVQLVESGGGLVQAGGSLRLSCAASGRNFRTNAMGWYRQAPGKERELVAAITWRGGNTYYADSVKGRFTISRDNAKNTVYLQMNSLKPEDTAVYYCATAYRYYPSPYDYWGQGTQVSVSS | high polyreactivity
2 | QVQLVESGGGLVQAGGSLRLSCAASGGIFRIYAMGGYRQAPGKERELVAAISRSGGTTYYADSVKGRFTISRDNAKNTVDLQMNSLKPEDTAVYYCNARYYQSRHVNDVPNYYWGHGTQVTVSS | high polyreactivity
3 | QVQLVESGGGLVQAGGSLRLSCAASGSTCSRNAMGWYRQAPGKERELVAAINYSGGITYYADSVKGRFTISRDNAKNTVYLQMNSLKPEDTAVYYGAAVATNVPTHGRPSRRAYDYWGQGTQVTVSS | low polyreactivity
4 | QVQLVESGGGLVQAGGSLRLSCAASGRIFVTNAMGWYRQAPGKERELVAAITRGGSTNYADSVKGRFTISRDNAKNTVYLQMNSLKPEDTAVYYCAAKRRYYGPWSRIGYDYWGQGTQVTVSS | low polyreactivity
5 | QVQLVESAAGLVQAGGRLRLSCAASGYTFSNYAMGWSRQAPGKERELVAAISRSGGSTYYADSVKGRFTISRDNAKNTVYLQMNSLNPVDTAVYYCAASRSGTYDWGLGTQVTVSS | high polyreactivity
6 | QVQLVESGGGLVQAGGSLRLSCAASGFTFYGNAMGWYRQAPGKERELVSAISYNGGSTYYADSVKGRFTISRDNAKNTVYLQMNSLKPEDTAVYYCAAGYYWQYTSSSAQYAYDYWGQGTQVTVSS | low polyreactivity
7 | QVQLVESGGGLVQAGGSLRLSCAASGSTFTRNAMGWYREAPGTERELVAAISFSGGSTYYADSVKGRFTISRDNAKNTVYLQMNSLKPEDTAVYYCATKVEYRYYYWGQGTQVTVSS | high polyreactivity
8 | QVQLVESGGGLVQAGGSLRLSCAASGFTFTVYAMGWYRQAPGKERELVAAIRWSGGSTSYADSVKGRFTISRDNAKNTVYLQMNSLKPEDTAVYYCNARISDAHYQSNYFLVLYDYWGKGTQVTVSS | low polyreactivity
9 | EVHLVESGGCLVQPRGSLRLSCAASGYNYIRYRMGSYRQAPGKVREFVAAISGGSSTNYADSVKGRFTISRDNSKNTVYLQMNSLRAEDTAVYYCAAYKIDSDPRVYWGQGTQVTVSS | low polyreactivity
10 | QVQLVESGGGLVQAGGSLRLSCAASGSIFPYYAMGWYRQAPGKERELVATISSGGSTFYADSVKGRFTISRDNAKKTVYLQMNSLKPEDTAVYYCAADIWYFDYDYWGQGTQVTVSS | high polyreactivity
11 | QVQLVESGGGLVQAGGSLRLSCAASVSTFPQYAMGWYRQAPGKERELVAAISWSGGRTYYADSVKGRFTISRDNAKNTVYLQMNSLKPEDTAVFYCAATYPGQYGYNYWGQGTQVTVSS | high polyreactivity
12 | QVQLVESGGGLVQAGGSLRLSCAASGFISSRYAMGWYRQAPGKERELVASINWSGGSTYYADSVKGRFTISRDNAKNTVYLQMNSLKPEDTAVYYCNRVLDPTNKYYYWGQGTQVTVSS | high polyreactivity
13 | QVQLVESGGGLVQAGGSLRLSCAASGSILTGNAMGWYRPAPGKERELVAAISAGGTRTYYADSVKGRFTISRDNAKNTVYLQMNSLKPEDTAVYYCAADSSKRIGYDYWGQGTQVTVSS | high polyreactivity
14 | QVQLVESGGGLVQAGGSLRLSCAASGSTFDTYAMGWYRQAPGKERELVAVITTGGSTYYADSVKGRFTISRDNAKNTVNLQMNSLKPEDTAVYYCNAGYSVSRRRKYGYWGQGTQVTVSS | high polyreactivity
15 | QVQLVESGGGLVQAGGSLRLSCAASGSIFLAYAMGWYRQAPGKEREFVAAISSRGGSTYYADSVKGRFTISRDNAKNTVYLQMNSLKPEDTAVYYCARYKYTRQTRVEYGYWGQGTQVTVSS | high polyreactivity
16 | QFQLVESGGGLVQAGGSLRLSCAASGRIFVGYAMGSYRQAPGKEMELVATISSRGGSTYYADSVKGRFTISRDNAKNTLYLQMNSLKPEDTAVYYCAAVARNNRNSRQRIPYDFWGQGTQVTVSS | high polyreactivity
17 | QVQLVESGGGLVQAGGSLRLSCAASGRIFYQNPMGWYRPAPGKERELVADISSGGSTYYADSVKGRFTISRDNAKNTVYLQMNSLKPEDTAGYYCNTPSGPGTVGSYRRIWYGYWGQGSQVTVSS | low polyreactivity
18 | QVQLVESGGGLVQAGGSLRLSCAASGRIFVKNAMGWYRQAPGKERELVAAISSSSGSTYYADSVKGRFTISRDNAKNTVYLQMNSLKPEDTAVYYCATVRWYYSRPRPTTAYGYWGQGTQVTVSS | high polyreactivity
19 | QVQLVESGGGLVQAGGSLRLSCAASGSTFYYYAMGWYRQAPGKDRELVAAISKRDGRTYYADSVKGRFTISRDNAKNTVYLQMNSLKPEDTAVYYCNAYSYGHYYWGQGTQVTVSS | high polyreactivity
20 | QVQLVESGGGLVQAGGSLRLSCAASGRIFGYYTMGWYRQAPGKERELVADSSGGNTSYADSVKGRFTISRDNAKNTVYLQMNSLKPEDTAVYYCAKDLPGAWRGDDYWGQGTQVTVSS | low polyreactivity
21 | QVQLVESGGGIVQAGGSLRLSCAASGFIFRYAMGWYRPAPGKERELVAAISSSGGSTNYADSVKGRFTISRDNAKNTVYLQMNILKPEDSAVYYCAADQYYGGSWWYDYWGQGTQVSVSS | high polyreactivity
22 | QVQLVESGGGLVQAGGSLRLSCAASGLTFGIYDMGWYRQAPGKERELVAGIRWSGGDSTYYADSVKGRFTNSRDNAKNTVYLQMNSLKPEDTAVYYCAARLYRWGGGLSRDKHGYWGQGTQVTVSS | low polyreactivity

Row | Sequence | polyreactivity (PSR sort gate)
23 | QVQLVESGGGLVQAGGSLRLSCAASGSTFSGYAMGWYRQAPGKERELVAAISTSGGRTYYADSVKGRFTISRDNAKNTVYLQMNSLKPEDTAVYYCAAQYRGLYKGLGSWGQGTQVTVSS | high polyreactivity
24 | QVQLVESGGGLVQAGGSLRLSCAASASIFRSYAMGWYRQAPGKERELVAAISWRGDSTYYADSVKGRFTISRDNAKHTVYLQMNSLKPEDTAVYYCNVQRSLRMDYWGQGTQGTVSS | high polyreactivity
25 | PVQLVESGGGLVQAGGSLSLICAASGRIFYMYAMRCYRPAPAKERELVAAITWSGGSTTYADSVKGRFTISRDNAKNTVYLQMNSLKPEDTSVYYCNAEGWIFPSFSPMDYWGQGTQVTVSS | low polyreactivity
26 | QVHLVETGGGLVQAGGSLRLSCAASGYIFGWYAMGWYRQAPGKERELVAAITRGGSTNYADSVKGRFTISRDNAKNTVYLLMNSLKPEDTAVYYCNTEDWAVGSPEVEYEYDYWGQGTQVTVSS | low polyreactivity
27 | QVQLVESGGGLVQAGGSLRLSCAASGFTFVYYAMGWYRQAPGKERELVAAISRRGGNTNYADSVKGRFTISRDNEKNTVYLQMNSLKTEDTAVYYCNARLTGDRYYYYPMDYWGQGTQVTVST | high polyreactivity
28 | QVQLVESGGGLVQAGGSLRLSCAASGSIFGSYAMGWYRQAPGKEMELVAAISGSGGRTYYADSVKGRFTISRDNAKNTVYLKMNSLKPEDTAVYYCSAAYPRVTYKYGYYWGQGTQVTVSS | high polyreactivity
29 | QVQHVESCGGLVQAGGSLRLSCAASGRIINSNDMGWYRQAPGKERELVAAISKRGGSTFYADSVKGRFTISRDNAKNTVYLQRNSLKPEDTAVYYCAADKWTYYYAVDSWGQGTQVTVSS | high polyreactivity
30 | QVQLVESGGGLVQAGGSLRLSCAASGFTFYEYAMGWYRQAPGKERELVAAITQTGVRTYYADSVKGRFTISRDNAKNTVYLQMNSLKPEDTAVYYCAADDPRQRPRGHYDYWGQGTQVTVSS | low polyreactivity
31 | QVQLVESGGGLVQAGGSLRLSCAASGSIFRRYAMGWYRQAPGKERELVAAISWRGDSTYYADSVKGRFTISRDNAKNTVYLQMNSLIPEDTAVYYCAADYYRAGRYWGQRHGYDYWGQGTQVTVSS | low polyreactivity
32 | QVQLVESGGGLVQAGGSLRLSCAASGSTFWSNAMGWYRQAPGKERELVATINSGDGTNYADSVKGRFTISRDNAKNTVYLQMNSLKPEDTAVYYCAAEKYYPWGWYTYDYWGQGTQVTVSS | high polyreactivity
33 | QVQLVESGGALVHAGGSLRLSCAASGSIFYQYDMGWYRQAPLKERELVAAISRSGTRTYYEDSVKGRFTISRDNAKNTVYLKMNSLKPEDTAVYYCARRYRSGYGYWGQGTQVTVSS | high polyreactivity
34 | QVQLVESGGGLVQAGGSLRLRCAASGSIFIRYAMGWYRQAPGKERELVAVISGRGVRTNYADSVKGRFTIARDTAKNPVYLQMNSLKPEDTAVYYCAVRYYGKQLGPGVRYTYNYLGQGTQVTVSS | high polyreactivity
35 | QVQLEESGGGLVQAGGSLRLSCAASGFIFPHYAMGWYLQAPGKERELVAAISKSGDSTYYADSVKGRFTISRDNAKNTVYLQMNSLKPEDTAVYYCARRGRSLRWKYDYWGQGTQVTVSS | low polyreactivity
36 | QVQLVESGGGLVQAGGSLRLSCAASGRIFRPNTMGWYRQAPGKERELVAAISRSGGSTYYADSVKGRFTISRDNAKNTVYLQMNSLKPEDTAVDYCAKRYGGIVGVGANKYEYWGQGTQVTVAS | high polyreactivity
37 | QVQLVESGGGLVQAGGSLRLSCAASGLTFEWYPMGWSRQAPGKERELVAAITTGGTTNYADSVKGRFTISRDNAKNTVYLQMISLKPEDTAVYYCARLYRSGYEYWGQGTHVTVSS | low polyreactivity
38 | QVQLVESGGGLVQAGGSLRLSCAASGSIFYVNAMGWYRQAPGKERELVAVNADSVKGRFTISRDNAKNTVYLQMNSLKPEDTAVYYCAAGVNSTTRIYDYWGQGTQVTVSS | low polyreactivity
39 | QVQLVESGGGLVQAGGSLRLSCAASGFIFYRYTMGWYRPAPGKERELVASITWSDGSTSYADSVNGRFTISRDNAKNTVYLQMNSLKPEDTAVYYCAADVSYQVIYEYDYSGQGTQVTVSS | low polyreactivity
40 | QVQLVESGGGLVQAGGSLRLSCAASGNIFRGYTMGWSRQAPGKEREWVATISWNGVSTFYADSVKGRFTISRDNAKNTVYVQMNSLKPEDTAVYYCAAYYPSHDYSGFWSDTYEYWGQGTQVTVSS | low polyreactivity
41 | QVQLLESGGGLVQAGGSLRLSCAASGRIFGSNAMGWYRQAPGKERELVAAITRGGSTNYADSVKGRFTISRDNAKNTVYLQMNSLKPEDTAVYYCAAVPFGEVDYWGQGTQVTVSS | high polyreactivity
42 | QVHLVESGGGLVQAGGSLSLSCAASGSIFRYYAMGWYRQAPGKEREFVAAITRGGGRTYYADSVKGRFTISRDTAKHTVYLQLNSLKPEDTAVYSCAAGPPRTRYRNARFDYWGQGTQVTVSS | high polyreactivity
43 | QVQLVESGGGLVQAGGSLRLSCAASGSIFWWNTMGWYRQAPGKERELVAAITFSGGSTYYADSVKGRFTISRDNAKNTVYLQMNSLKPEDTAVYYCNADGWVSVRGTWSDGGYWGQGTQVTVSS | low polyreactivity

Source: the nanobody polyreactivity screen of Harvey et al. (2022)
